T1: mature form of human TGFβ2 (made from LAP-TGFβ2 in CHO, for crystallization) (Homo sapiens)
T1 construct: Transforming Growth Factor-beta 2, human, mature form separated from LAP-TGFβ2; also called TGFb2; TGFβ2 dimer
T1 chain: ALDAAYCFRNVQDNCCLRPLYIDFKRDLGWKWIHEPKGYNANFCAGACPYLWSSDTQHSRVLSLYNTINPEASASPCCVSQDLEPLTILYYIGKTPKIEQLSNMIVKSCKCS


How the values were obtained:
[1] = molecular target: T2, human mature TGFβ3 (Homo sapiens, UniProt P10600); assay: SPR; Biacore T200; antibody captured on a Protein A sensor chip (about 90 RU); mature TGFβ isoform injected, five-fold dilutions 0.008 nM to 5 nM; HBS-EP pH 7.4, 150 mM NaCl; 37 °C; 100 μl/min; 3 min association, 60 min dissociation; one-to-one Langmuir model, global fit; details: both partners purified
T2 construct: Transforming Growth Factor-beta 3, human, mature form (cut from the precursor); also called TGFb3; source: bought: PeproTech
T2 sequence (P10600 301-412): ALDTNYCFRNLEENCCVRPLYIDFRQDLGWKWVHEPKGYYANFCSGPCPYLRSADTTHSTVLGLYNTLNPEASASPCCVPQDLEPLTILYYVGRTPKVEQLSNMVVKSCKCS

[2] = molecular target: T3, human mature TGFβ2 (PeproTech) (Homo sapiens, UniProt P61812); assay: as above; details: both partners purified
T3 construct: Transforming Growth Factor-beta 2, human, mature form (cut from the precursor); also called TGFb2; source: bought: PeproTech

[3] = molecular target: T4, human mature TGFβ1 (Homo sapiens, UniProt P01137); assay: as above; details: both partners purified
T4 construct: Transforming Growth Factor-beta 1, human, mature form (cut from the precursor); also called TGFb1; source: bought: PeproTech
T4 sequence (P01137 279-390): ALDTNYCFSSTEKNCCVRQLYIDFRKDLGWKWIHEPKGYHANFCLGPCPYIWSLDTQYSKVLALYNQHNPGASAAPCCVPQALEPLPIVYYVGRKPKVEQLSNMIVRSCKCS

[4] = molecular target: T2, human mature TGFβ3; assay: cell-based or functional assay
[5] = molecular target: T3, human mature TGFβ2 (PeproTech); assay: cell-based or functional assay
[6] = molecular target: T4, human mature TGFβ1; assay: cell-based or functional assay
[7] = molecular target: T1, mature form of human TGFβ2 (made from …); assay: crystal structure; TGFβ2 and h4A11.v2 Fab mixed at 1:1 molar ratio, complex purified on Superdex-200 (25 mM Tris-HCl pH 7.5, 200 mM NaCl); crystals by vapor diffusion at 19 °C, 15% PEG 4000, 0.1 M Na Cacodylate pH 6.0; 2.9 Å; details: both partners purified

| Binder | Kd [1] | Kd [2] | Kd [3] | binding result [3] | TGFβ inhibition by HEK-Blue cells (IC50: nM), TGFb3; Blocking: Complete [4] | TGFβ inhibition by HEK-Blue cells (IC50: nM), TGFb2; Blocking: Complete [5] | TGFβ inhibition by HEK-Blue cells (IC50: nM), TGFb1 [6] | TGFβ inhibition by HEK-Blue cells (IC50: nM), TGFb3; Blocking: Incomplete [4] | TGFβ inhibition by HEK-Blue cells (IC50: nM), TGFb2; Blocking: Incomplete [5] | binding result [7] |
| --- | --- | --- | --- | --- | --- | --- | --- | --- | --- | --- |
| humanized 4A11 variant 3 (antibody, V domains shown, as the VH of m12 (h4A11.v7): rbt4A11 CDRs and rabbit Vernier residues grafted on human germline IGHV4-59*06; as the VL of m6 (h4A11.v1): rbt4A11 CDRs and rabbit Vernier residues grafted on human germline IGKV4-1*01; human IgG1; also called h4A11.v3; v3; source: Expi293F, transient, purified (Protein A, SEC)) VH: EQQLQESGPGLVKPSETLSLTCTVTGFSLSSYTVNWVRQPAGKGLEWIGYISYGGSAYYASWANGRFTISKDSSKNQVSLKLSSVTAADTAVYFCARHMQVGGAPTGSMAAFDPWGPGTLVTVSS VL: DAVLTQSPDSLAVSLGERATINCQSSQSVYNNNYLSWFQQKPGQPPKLLIYGASTLTSGVPDRFSGSGSGTDFTLTISSLQAEDVAVYYCAGGYSGSSDKYAFGGGTKVEIK | 0.0121 nM | 9.6 pM | > 5 nM | no binding (tested: 5 nM) | 0.2 nM | 3.9 nM | > 667 nM |  |  |  |
| humanized 4A11 variant 8 (antibody, V domains shown, as the VH of m12 (h4A11.v7): rbt4A11 CDRs and rabbit Vernier residues grafted on human germline IGHV4-59*06; as the VL of m11 (h4A11.v6): rbt4A11 CDRs and rabbit Vernier residues grafted on human germline IGKV2-24*01; human IgG1; also called h4A11.v8; v8; source: Expi293F, transient, purified (Protein A, SEC)) VH: EQQLQESGPGLVKPSETLSLTCTVTGFSLSSYTVNWVRQPAGKGLEWIGYISYGGSAYYASWANGRFTISKDSSKNQVSLKLSSVTAADTAVYFCARHMQVGGAPTGSMAAFDPWGPGTLVTVSS VL: DAVLTQTPLSSPVTLGQPASISCQSSQSVYNNNYLSWFQQRPGQPPRLLIYGASTLTSGVPDRFSGSGAGTDFTLKISRVEAEDVGVYYCAGGYSGSSDKYAFGGGTKVEIK | 0.0141 nM | 8.2 pM | > 5 nM | no binding (tested: 5 nM) | 0.7 nM | 4.8 nM | > 667 nM |  |  |  |
| humanized 4A11 variant 1 (antibody, V domains shown, as the VH of m7 (h4A11.v2): rbt4A11 CDRs and rabbit Vernier residues grafted on human germline IGHV3-48*01; rbt4A11 CDRs and rabbit Vernier residues (VL positions 2, 4, 36, 43, 58) grafted on human germline IGKV4-1*01; human IgG1; also called h4A11.v1; v1; source: Expi293F, transient, purified (Protein A, SEC)) VH: EQQLVESGGGLVQPGGSLRLSCAVSGFSLSSYTVNWVRQAPGKGLEWIGYISYGGSAYYASWANGRFTISKDSAKNSVYLQMNSLRAEDTAVYFCARHMQVGGAPTGSMAAFDPWGPGTLVTVSS VL: DAVLTQSPDSLAVSLGERATINCQSSQSVYNNNYLSWFQQKPGQPPKLLIYGASTLTSGVPDRFSGSGSGTDFTLTISSLQAEDVAVYYCAGGYSGSSDKYAFGGGTKVEIK | 0.0144 nM | 4.6 pM | > 5 nM | no binding (tested: 5 nM) |  |  | > 667 nM | > 667 nM | > 667 nM |  |
| humanized 4A11 variant 7 (antibody, V domains shown, rbt4A11 CDRs (Kabat and Chothia) and rabbit Vernier residues (VH positions 2, 24, 37, 48, 49, 67, 71, 78, 91, 105) grafted on human germline IGHV4-59*06; has S19, S79, K81 (Kabat numbering); rbt4A11 CDRs and rabbit Vernier residues (VL positions 2, 4, 36, 43, 58) grafted on human germline IGKV3-20*01; human IgG1; also called h4A11.v7; v7; source: Expi293F, transient, purified (Protein A, SEC)) VH: EQQLQESGPGLVKPSETLSLTCTVTGFSLSSYTVNWVRQPAGKGLEWIGYISYGGSAYYASWANGRFTISKDSSKNQVSLKLSSVTAADTAVYFCARHMQVGGAPTGSMAAFDPWGPGTLVTVSS VL: EAVLTQSPGTLSLSPGERATLSCQSSQSVYNNNYLSWFQQKPGQPPRLLIYGASTLTSGVPDRFSGSGSGTDFTLTISRLEPEDFAVYYCAGGYSGSSDKYAFGGGTKVEIK | 0.0097 nM | 6.3 pM | > 5 nM | no binding (tested: 5 nM) | 0.2 nM | 0.9 nM | > 667 nM |  |  |  |
| humanized 4A11 variant 4 (antibody, V domains shown, as the VH of m12 (h4A11.v7): rbt4A11 CDRs and rabbit Vernier residues grafted on human germline IGHV4-59*06; as the VL of m7 (h4A11.v2): rbt4A11 CDRs and rabbit Vernier residues grafted on human germline IGKV1D-39*01; human IgG1; also called h4A11.v4; v4; source: Expi293F, transient, purified (Protein A, SEC)) VH: EQQLQESGPGLVKPSETLSLTCTVTGFSLSSYTVNWVRQPAGKGLEWIGYISYGGSAYYASWANGRFTISKDSSKNQVSLKLSSVTAADTAVYFCARHMQVGGAPTGSMAAFDPWGPGTLVTVSS VL: DAQLTQSPSSLSASVGDRVTITCQSSQSVYNNNYLSWFQQKPGKPPKLLIYGASTLTSGVPSRFSGSGSGTDFTLTISSLQPEDFATYYCAGGYSGSSDKYAFGGGTKVEIK | 0.0101 nM | 10 pM | > 5 nM | no binding (tested: 5 nM) | 0.1 nM | 1.9 nM | > 667 nM |  |  |  |
| humanized 4A11 variant 5 (antibody, V domains shown, as the VH of m7 (h4A11.v2): rbt4A11 CDRs and rabbit Vernier residues grafted on human germline IGHV3-48*01; as the VL of m12 (h4A11.v7): rbt4A11 CDRs and rabbit Vernier residues grafted on human germline IGKV3-20*01; human IgG1; also called h4A11.v5; v5; source: Expi293F, transient, purified (Protein A, SEC)) VH: EQQLVESGGGLVQPGGSLRLSCAVSGFSLSSYTVNWVRQAPGKGLEWIGYISYGGSAYYASWANGRFTISKDSAKNSVYLQMNSLRAEDTAVYFCARHMQVGGAPTGSMAAFDPWGPGTLVTVSS VL: EAVLTQSPGTLSLSPGERATLSCQSSQSVYNNNYLSWFQQKPGQPPRLLIYGASTLTSGVPDRFSGSGSGTDFTLTISRLEPEDFAVYYCAGGYSGSSDKYAFGGGTKVEIK | 0.0139 nM | 12.1 pM | > 5 nM | no binding (tested: 5 nM) |  |  | > 667 nM | > 667 nM | > 667 nM |  |
| humanized 4A11 variant 2 (antibody, V domains shown, rbt4A11 CDRs (Kabat and Chothia) and rabbit Vernier residues (VH positions 2, 24, 37, 48, 49, 67, 71, 78, 91, 105) grafted on human germline IGHV3-48*01; has R19, Y79, Q81 (Kabat numbering); rbt4A11 CDRs and rabbit Vernier residues (VL positions 2, 4, 36, 43, 58) grafted on human germline IGKV1D-39*01; human IgG1; also called h4A11.v2; v2; source: Expi293F, transient, purified (Protein A, SEC)) VH: EQQLVESGGGLVQPGGSLRLSCAVSGFSLSSYTVNWVRQAPGKGLEWIGYISYGGSAYYASWANGRFTISKDSAKNSVYLQMNSLRAEDTAVYFCARHMQVGGAPTGSMAAFDPWGPGTLVTVSS VL: DAQLTQSPSSLSASVGDRVTITCQSSQSVYNNNYLSWFQQKPGKPPKLLIYGASTLTSGVPSRFSGSGSGTDFTLTISSLQPEDFATYYCAGGYSGSSDKYAFGGGTKVEIK | 0.0133 nM | 1.4 pM | > 5 nM | no binding (tested: 5 nM) |  |  | > 667 nM | > 667 nM | > 667 nM |  |
| humanized 4A11 variant 6 (antibody, V domains shown, as the VH of m7 (h4A11.v2): rbt4A11 CDRs and rabbit Vernier residues grafted on human germline IGHV3-48*01; rbt4A11 CDRs and rabbit Vernier residues (VL positions 2, 4, 36, 43, 58) grafted on human germline IGKV2-24*01; human IgG1; also called h4A11.v6; v6; source: Expi293F, transient, purified (Protein A, SEC)) VH: EQQLVESGGGLVQPGGSLRLSCAVSGFSLSSYTVNWVRQAPGKGLEWIGYISYGGSAYYASWANGRFTISKDSAKNSVYLQMNSLRAEDTAVYFCARHMQVGGAPTGSMAAFDPWGPGTLVTVSS VL: DAVLTQTPLSSPVTLGQPASISCQSSQSVYNNNYLSWFQQRPGQPPRLLIYGASTLTSGVPDRFSGSGAGTDFTLKISRVEAEDVGVYYCAGGYSGSSDKYAFGGGTKVEIK | 0.0125 nM | 8.4 pM | > 5 nM | no binding (tested: 5 nM) |  |  | > 667 nM | > 667 nM | > 667 nM |  |
| Fab fragment of h4A11.v2 (Fab, V domains shown, Fab heavy chain of h4A11.v2; its VH as the VH of m7; Fab light chain of h4A11.v2; its VL as the VL of m7; also called h4A11.v2-Fab; h4A11.v2 Fab; source: E. coli, purified (Protein G, SP-sepharose)) VH: EQQLVESGGGLVQPGGSLRLSCAVSGFSLSSYTVNWVRQAPGKGLEWIGYISYGGSAYYASWANGRFTISKDSAKNSVYLQMNSLRAEDTAVYFCARHMQVGGAPTGSMAAFDPWGPGTLVTVSS VL: DAQLTQSPSSLSASVGDRVTITCQSSQSVYNNNYLSWFQQKPGKPPKLLIYGASTLTSGVPSRFSGSGSGTDFTLTISSLQPEDFATYYCAGGYSGSSDKYAFGGGTKVEIK |  |  |  |  |  |  |  |  |  | binds |
| rabbit monoclonal antibody 4A11 (antibody, V domains shown, VH of rbt4A11; VL of rbt4A11; Parental rabbit antibody; also called rbt4A11) VH: QSLEESGGRLVTPGTPLTLTCTVSGFSLSSYTVNWVRQAPGKGLEWIGYISYGGSAYYASWANGRFTISKTSATVDLKITSPTTEDTATYFCARHMQVGGAPTGSMAAFDPWGPGTLVTVSS VL: AAVLTQTPSPVSAAVGGTVSISCQSSQSVYNNNYLSWFQQKPGQPPKLLIYGASTLTSGVPSRFKGSGSGTQFTLTISDVQCDDAATYYCAGGYSGSSDKYAFGGGTEVVVK | 0.0012 nM | 1.6 pM | > 5 nM | no binding (tested: 5 nM) | 0.1 nM | 0.9 nM | > 667 nM |  |  |  |

From paper PMC8595303, “Dramatic activation of an antibody by a single amino acid change in framework” (Scientific Reports, 2021)
